The target in assay [1] is T1, recombinant human CD28-His (rhCD28-His) (human, UniProt P10747 19-152).
T1 construct: also called Human CD28-His protein; recombinant CD28 protein; not shown: His tag
Briefly: ELISA: coat rhCD28-His (Acro), detection Anti-hFc-HRP. How it is done: To understand whether the CD80 and CD86 parts of the hCD80-Fc-NKG2A and hCD86-Fc-NKG2A chimeric protein can bind CD28, ELISA-based assays were performed. Briefly, recombinant CD28 protein was coated on plates and increasing amounts of the hCD80-Fc-NKG2A, hCD86-Fc-NKG2A, and mCD48-Fc-NKG2A chimeric proteins, and recombinant human CD86-Fc (rhCD86-Fc) protein was added to the plates for capture by the plate-bound recombinant CD28 protein. The mCD48-Fc-NKG2A chimeric protein, and recombinant human CDrhCD86-Fc protein was used as negative and positive controls, respectively. The chimeric proteins bound to the recombinant CD28 protein was detected using an anti-human Fc HRP.
On the technique in general: In an ELISA, binding on a coated surface is turned into a signal by an enzyme label.

Assay [2] addresses T2, recombinant HLA-E-His protein (human, UniProt P13747 22-305, limits assumed).
T2 construct: also called recombinant HLA-E (HLA-E-His); not shown: His tag
Briefly: ELISA: the chimeric protein is the titrated coat (1:3), detection HLA-E-His (Novus NBP2-47435PEP), HRP Anti-6x-His-HRP. How it is done:
In a complementary experiment, increasing amounts of the hCD48-Fc-NKG2A, hCD58-Fc-NKG2A, and hCD80-Fc-NKG2A chimeric proteins or a negative control protein was coated on plates. Recombinant HLA-E-His protein was added to the plates for capture by the plate-bound chimeric proteins or the negative control protein. The captured HLA-E-His protein was detected using an anti-6×-His-HRP antibody.

Assay [3] deals with T3, recombinant human CD28-Fc (rhCD28-Fc) protein (human, UniProt P10747 19-152).
T3 construct: not shown: Fc
T3 sequence (P10747 19-152 limits assumed): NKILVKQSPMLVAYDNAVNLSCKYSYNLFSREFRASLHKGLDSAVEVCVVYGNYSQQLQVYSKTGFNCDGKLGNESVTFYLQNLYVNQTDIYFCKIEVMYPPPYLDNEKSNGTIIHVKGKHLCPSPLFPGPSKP
The experiment in a line: dual ELISA; coat rhCD28-Fc, hCD80-fc-NKG2a titrated, detection HLA-E-His, Anti 6x-His-HRP; the signal needs both bindings. How it is done: To understand whether the hCD80-Fc-NKG2A chimeric protein can binds simultaneously to both hCD28 and HLA-E, the following ELISA experiment was carried out. Briefly, and recombinant hCD28 (rhCD28-Fc) protein was coated on plates. Increasing amounts of the hCD80-Fc-NKG2A chimeric protein was added to the plates for capture by the recombinant human CD28-Fc (rhCD28-Fc) protein. Further, recombinant HLA-E (HLA-E-His) protein was added to the plate for capture by hCD80-Fc-NKG2A chimeric protein. The binding of the HLA-E-His protein was detected using an anti-His 6× HRP antibody.

Assay [4] deals with T4, anti-human IgG antibody (plate-bound).
T4 construct: also called anti-human Fc antibody
Briefly: Fc ELISA: coat Anti-hFc (Jax), detect Anti-hFc-HRP (Jax).

The target in assay [5] is T5, hPD-L1 expressed on CHO-K1/hPD-L1 cells (human, UniProt Q9NZQ7 19-290).
T5 construct: whole, on cells
T5 sequence (Q9NZQ7 19-290): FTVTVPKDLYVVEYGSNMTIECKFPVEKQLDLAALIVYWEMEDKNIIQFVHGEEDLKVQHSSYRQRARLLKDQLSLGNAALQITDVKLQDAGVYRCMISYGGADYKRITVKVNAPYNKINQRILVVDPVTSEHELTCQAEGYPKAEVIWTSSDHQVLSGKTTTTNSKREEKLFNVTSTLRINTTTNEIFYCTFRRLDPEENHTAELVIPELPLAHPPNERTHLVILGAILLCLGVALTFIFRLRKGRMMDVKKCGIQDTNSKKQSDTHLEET
Briefly: flow cytometry cell binding assay, CHO-K1-Luc cells, detection Anti-hARC-PE. For orientation: In flow cytometry, cells or beads pass a laser one at a time.

Assay [6] concerns the target T6, PD-L1, plate-bound (Example 8) (Homo sapiens (Human), UniProt Q9NZQ7 19-238).
T6 construct: not shown: The Fc carrier of the vendor's hPD-L1-Fc (R&D) and any linker
The experiment in a line: Dual ELISA (capturing with PDL1): coat hPDL1-Fc (R&D), detect hHLA-E (Novus), HRP Anti-6X His.

Assay [7] deals with T2, recombinant HLA-E-His protein. Briefly: Dual binding ELISA (capturing with HLA-E): coat hHLA-E-His (Novus), detect Anti-hPD1 (Sino), HRP Anti-mFc-HRP. An excerpt: As shown in FIG. 9C and FIG. 9D, binding of the hNKG2A domain of the hPD-1-Fc-hNKG2A chimeric protein was characterized by capturing to, respectively, a plate-bound HLA-E. In FIG. 9C, the hPD-1-Fc-hNKG2A chimeric protein was detected using an anti-human PD-1 antibody in conjunction with an HRP conjugated anti-mouse Fc antibody. In FIG. 9D, the hPD-1-Fc-hNKG2A chimeric protein was directly detected via an HRP conjugated anti-mouse Fc antibody.

Assay [8] concerns the target T7, recombinant hPD-L1 (hPD-L1-Fc) protein (human, UniProt Q9NZQ7 19-239).
T7 construct: not shown: Fc
The experiment in a line: dual ELISA; coat hPDL1-Fc, hPD1-fc-NKG2a titrated, detection HLA-E-His, Anti-His-6x-HRP; the signal needs both bindings. How it is done:
To understand whether the hPD-1-Fc-NKG2A chimeric protein can binds simultaneously to both hPD-L1 and HLA-E, the following ELISA experiment was carried out. Briefly, and recombinant hPD-L1 (hPD-L1-Fc) protein was coated on plates. Increasing amounts of the hPD-1-Fc-NKG2A chimeric protein was added to the plates for capture by the hPD-L1-Fc protein. Further, recombinant HLA-E (HLA-E-His) protein was added to the plate for capture by hPD-1-Fc-NKG2A chimeric protein. The binding of the HLA-E-His protein was detected using an anti-His 6× HRP antibody.

Assay [9] has as its target T2, recombinant HLA-E-His protein. The experiment in a line: ELISA (single-sided): coat hHLA-E-His (Novus), detect Anti-hFc (JAX); curve rises to about 0.4 at the highest concentration, no plateau. An excerpt:
As shown in FIG. 9C and FIG. 9D, binding of the hNKG2A domain of the hPD-1-Fc-hNKG2A chimeric protein was characterized by capturing to, respectively, a plate-bound HLA-E. In FIG. 9C, the hPD-1-Fc-hNKG2A chimeric protein was detected using an anti-human PD-1 antibody in conjunction with an HRP conjugated anti-mouse Fc antibody. In FIG. […]

The target in assay [10] is T8, anti-mFc IgG antibody (plate-bound).
T8 construct: also called anti-Fc antibody
The experiment in a line: ELISA: coat Anti-mFc (IgG) Jax #115-006-008, detection Anti-mFc (H+L) HRP. How it is done: To understand whether the Fc linkers from the native chimeric proteins can be accessed by anti-mouse Fc antibodies, ELISA-based assays were performed. For these assays, an anti-mFc IgG antibody was coated on plates and increasing amounts of the mPD-1-Fc-NKG2A and mSLAMF6-Fc-NKG2a chimeric proteins were added to the plates for capture by the plate-bound anti-mFc IgG antibody. The binding of the mPD-1-Fc-NKG2A and mSLAMF6-Fc-NKG2a chimeric proteins bound to the anti-mFc IgG antibody were detected using an anti-mFc HRP. An IgG antibody mouse Fc was used to generate a standard curve. mFc IgG was used as a positive control.

Assay [11] concerns the target T9, recombinant PD-L1 protein (mPD-L1-His) (mouse, UniProt Q9EP73 19-238).
T9 construct: not shown: His tag
The experiment in a line: ELISA; mPD1-Fc-NKG2a coated in rising amounts, detection mPD-L1-His, Anti-His-6x-HRP. How it is done: Programmed death-ligand 1 (PD-L1) is a PD-1 ligand. To understand whether the PD-1 parts of the PD-1-Fc-NKG2A chimeric protein can bind PD-L1, ELISA-based assays were performed. […] The chimeric protein bound to the recombinant PD-L1 protein was detected using an anti-His-6× HRP.

Assay [12] has as its target T10, recombinant mouse PD-L1-Fc (rmPD-L1-Fc) (mouse, UniProt Q9EP73 19-238).
T10 construct: also called rPD-L1-Fc; not shown: Fc
Briefly: dual ELISA; coat mPDL1-Fc, mPD1-Fc-NKG2a titrated, detection HLA-E-His, Anti-His-6x-HRP; the signal needs both bindings. As for the experimental part: Increasing amounts of the mPD-1-Fc-NKG2A chimeric protein was added and detected using HLA-E-His. A chimeric protein comprising ECD of a type II transmembrane protein other than NKG2A was used as a negative control.
To understand whether the PD-1-Fc-NKG2A chimeric protein can binds simultaneously to both PD-L1 and HLA-E, the following ELISA experiment was carried out. Briefly, and recombinant PD-L1 (rPD-L1-Fc) protein was coated on plates. Increasing amounts of the PD-1-Fc-NKG2A chimeric protein was added to the plates for capture by the rPD-L1-Fc protein. Further, recombinant HLA-E (HLA-E-His) protein was added to the plate for capture by PD-1-Fc-NKG2A chimeric protein. The binding of the HLA-E-His protein was detected using an anti-His 6× HRP antibody.

By EC50 (read off the curve) is commonly meant the concentration at which the effect is half-maximal. As usually defined, the EC50 is the midpoint of the concentration-response curve.

T2 sequence (P13747 22-305 limits assumed): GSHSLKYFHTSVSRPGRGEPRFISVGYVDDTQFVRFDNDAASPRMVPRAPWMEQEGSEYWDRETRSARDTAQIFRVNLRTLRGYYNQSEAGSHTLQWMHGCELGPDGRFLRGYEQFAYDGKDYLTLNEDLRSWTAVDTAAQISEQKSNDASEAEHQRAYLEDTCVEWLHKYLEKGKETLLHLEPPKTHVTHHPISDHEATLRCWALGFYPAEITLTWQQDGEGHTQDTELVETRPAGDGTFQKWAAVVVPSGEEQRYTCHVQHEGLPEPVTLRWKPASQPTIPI
T6 sequence (Q9NZQ7 19-238 limits assumed): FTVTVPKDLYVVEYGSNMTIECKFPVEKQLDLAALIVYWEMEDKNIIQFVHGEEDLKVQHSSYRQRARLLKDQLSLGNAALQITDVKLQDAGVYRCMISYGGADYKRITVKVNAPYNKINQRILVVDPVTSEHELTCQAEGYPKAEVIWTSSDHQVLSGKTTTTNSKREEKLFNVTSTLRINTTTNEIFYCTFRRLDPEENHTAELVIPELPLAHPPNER
T1 sequence (P10747 19-152 limits assumed): as the sequence (P10747 19-152 limits assumed) above
T7 sequence (Q9NZQ7 19-239 limits assumed): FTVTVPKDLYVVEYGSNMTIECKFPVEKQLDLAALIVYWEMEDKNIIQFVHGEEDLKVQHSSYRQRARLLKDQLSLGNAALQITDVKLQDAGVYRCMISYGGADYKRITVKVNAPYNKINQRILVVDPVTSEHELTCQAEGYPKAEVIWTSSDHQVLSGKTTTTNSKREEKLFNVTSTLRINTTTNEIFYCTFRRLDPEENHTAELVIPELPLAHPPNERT
T10 sequence (Q9EP73 19-238 limits assumed): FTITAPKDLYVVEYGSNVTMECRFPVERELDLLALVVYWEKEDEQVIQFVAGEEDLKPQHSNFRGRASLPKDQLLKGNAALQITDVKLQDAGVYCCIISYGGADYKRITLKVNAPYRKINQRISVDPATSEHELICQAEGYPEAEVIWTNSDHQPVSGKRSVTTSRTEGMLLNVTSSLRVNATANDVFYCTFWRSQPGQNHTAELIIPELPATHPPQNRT
T9 sequence (Q9EP73 19-238 limits assumed): as above

B1: human CD80-Fc-NKG2A chimeric protein (Fc fusion)
chain: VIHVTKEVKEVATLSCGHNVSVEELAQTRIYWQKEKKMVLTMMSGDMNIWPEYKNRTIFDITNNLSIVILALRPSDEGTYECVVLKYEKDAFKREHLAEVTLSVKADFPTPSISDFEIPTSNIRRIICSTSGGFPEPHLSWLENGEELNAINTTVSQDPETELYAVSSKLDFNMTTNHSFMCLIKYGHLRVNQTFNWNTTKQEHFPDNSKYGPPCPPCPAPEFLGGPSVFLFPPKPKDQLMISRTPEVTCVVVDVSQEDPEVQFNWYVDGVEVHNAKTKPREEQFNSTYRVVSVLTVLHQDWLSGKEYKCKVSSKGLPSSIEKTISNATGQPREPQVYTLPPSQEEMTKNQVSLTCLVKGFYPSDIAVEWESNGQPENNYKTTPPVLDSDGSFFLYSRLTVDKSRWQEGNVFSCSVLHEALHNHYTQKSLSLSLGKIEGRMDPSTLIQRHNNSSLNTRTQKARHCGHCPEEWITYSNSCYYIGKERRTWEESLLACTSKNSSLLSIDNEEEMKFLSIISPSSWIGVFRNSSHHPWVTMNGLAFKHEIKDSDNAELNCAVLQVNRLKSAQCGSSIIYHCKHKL
notes: also called hCD80-Fc-NKG2A
In the case of B1, the binding result in [1] and in assay [3] was “binds” throughout. Besides, the “EC50 (read off the curve)” value in assay [2] was roughly 0.9 µg/mL.

B2: human PD-1-Fc-hNKG2A chimeric protein (Fc fusion)
chain: not shown
notes: the Fc of the tested construct is therefore uncertain; also called hPD-1-Fc-hNKG2A; hPD-1-Fc-NKG2A
Consider B2, for which the EC50 was 0.00964 µM in [4], 0.0256 µM in assay [6], roughly 0.175 µM in assay [7] and roughly 24200 µM in assay [9]. In addition, the results for the “EC50 (read off the curve)” value in [5] and in assay [8] were roughly 1 µg/mL and roughly 20 µg/mL, respectively.

B3: mouse PD-1-Fc-NKG2A chimeric protein (Fc fusion)
chain: SGWLLEVPNGPWRSLTFYPAWLTVSEGANATFTCSLSNWSEDLMLNWNRLSPSNQTEKQAAFCNGLSQPVQDARFQIIQLPNRHDFHMNILDTRRNDSGIYLCGAISLHPKAKIEESPGAELVVTERILETSTRYPSPSPKPEGRFQGMVPRDCGCKPCICTVPEVSSVFIFPPKPKDVLTITLTPKVTCVVVDISKDDPEVQFSWFVDDVEVHTAQTQPREEQFNSTFRSVSELPIMHQDWLNGKEFKCRVNSAAFPAPIEKTISKTKGRPKAPQVYTIPPPKEQMAKDKVSLTCMITDFFPEDITVEWQWNGQPAENYKNTQPIMDTDGSYFVYSKLNVQKSNWEAGNTFTCSVLHEGLHNHHTEKSLSHSPGIIEGRMDTPYTEAKAQINSSMTRTHRDINYTLSSAQPCPHCPKEWISYSHNCYFIGMERKSWNDSLVSCISKNCSLLYIDSEEEQDFLQSLSLISWTGILRKGRGQPWVWKEDSIFKPKIAEILHDECNCAMMSASGLTADNCTTLHPYLCKCKFPI
notes: also called mPD-1-Fc-NKG2A; mPD1-Fc-NKG2A
For B3, the entries for the “EC50 (read off the curve)” value in [10], in assay [11] and in assay [12] were roughly 0.08 µg/mL, roughly 20 µg/mL and roughly 40 µg/mL, respectively.

For the origin of these results see patent US20200399344A1 (SHATTUCK LABS, published 2020).
